This data set deals with the molecule itself. The data set can be described thus: cross-linking.

B1: RVFV MP12 N protein delN1-14, N-terminal 6His-tag (p14-N) (domain or fragment)
chain: AVDRNEIEQWVREFAYQGFDARRVIELLKQYGGADWEKDAKKMIVLALTRGNKPRRMMMKMSKEGKATVEALINKYKLKEGNPSRDELTLSRVAAALAGWTCQALVVLSEWLPVTGTTMDGLSPAYPRHMMHPSFAGMVDPSLPGDYLRAILDAHSLYLLQFSRVINPNLRGRTKEEVAATFTQPMNAAVNSNFISHEKRREFLKAFGLVDSNGKPSAAVMAAAQAYKTAA
Consider B1, for which the binding result was “binds”.

B2: RVFV MP12 nucleocapsid protein (N), wild type, N-terminal 6His-tag (p14-N) (natural protein)
chain: MDNYQELRVQFAAQAVDRNEIEQWVREFAYQGFDARRVIELLKQYGGADWEKDAKKMIVLALTRGNKPRRMMMKMSKEGKATVEALINKYKLKEGNPSRDELTLSRVAAALAGWTCQALVVLSEWLPVTGTTMDGLSPAYPRHMMHPSFAGMVDPSLPGDYLRAILDAHSLYLLQFSRVINPNLRGRTKEEVAATFTQPMNAAVNSNFISHEKRREFLKAFGLVDSNGKPSAAVMAAAQAYKTAA
B2: the binding result is reported as “binds”.

Values taken from PMC5764413 (PLoS Neglected Tropical Diseases, 2017).
